This note sets out measurements from patent US20100093028A1 (DANISCO US, published 2010).

For assay [1], the target named is T1, vascular endothelial growth factor (UniProt P15692-4 27-191, limits assumed, biotin label (Example 5), site not stated).
T1 construct: also called VEGF; VegF
The experiment in a line: BioVeris ECL competition; wild-type negative control for VEGF binding.

In assay [2] the target is T2, fibroblast growth factor 5 (UniProt P12034 21-268, limits assumed).
T2 construct: also called FGF-5; FGF5
T2 sequence (looked up): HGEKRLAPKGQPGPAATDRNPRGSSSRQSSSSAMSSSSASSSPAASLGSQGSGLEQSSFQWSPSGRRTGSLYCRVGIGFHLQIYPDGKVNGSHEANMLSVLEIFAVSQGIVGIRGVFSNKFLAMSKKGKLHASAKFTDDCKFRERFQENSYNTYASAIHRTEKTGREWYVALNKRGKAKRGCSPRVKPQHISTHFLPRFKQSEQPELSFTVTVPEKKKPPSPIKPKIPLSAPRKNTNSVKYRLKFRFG
The experiment in a line: BioVeris ECL competition; wild-type negative control for FGF-5 binding.

Assay [3] deals with T1, vascular endothelial growth factor. The experiment in a line: BioVeris ECL competition with a labeled competitor; legend: +++ = IC50 about 2-10 µM. The procedure:
(§1) The resulting vectors were used to transform B. subtilis BG6006 host cells. Cultures were grown in 500 ml of MBD medium and the BBI species were purified essentially as described above and by Vogtentanz et al., 2007 (Protein Expr Purif 55:40-52 [2007]). BioVeris binding assays were performed essentially as outlined in Example 5 and by the manufacturer. Binding of the modified variant BBIs to their respective target proteins was measured using a BioVeris® binding assay, which is a competition assay that determines the binding of the modified variant BBIs to its target protein (e.g. VEGF, FGF5, TGFβ and TNFα) in the presence or absence of a labeled competitor. The competitor can be a labeled monoclonal antibody raised against the target protein or a labeled native receptor of the target protein. The electrochemiluminesent binding assays were performed essentially as described in Example 5. The apparent IC50s were determined from binding data by determining the concentration of the BBI species needed to reduce the BioVeris signal by one half. BBI scaffolds without the target binding peptide in the chymotrypsin inhibitory loop were used as negative controls.

The target in assay [4] is T3, Transforming growth factor β1 (UniProt P01137 279-390).
T3 construct: also called TGFβ1; TGFβ
The experiment in a line: BioVeris ECL competition with a labeled competitor; legend: ++ = IC50 about 10-50 µM. The procedure: as §1

Assay [5] deals with T2, fibroblast growth factor 5. The assay is described as above. The procedure: as §1
Assay [6] deals with T3, Transforming growth factor β1. Description: BioVeris ECL competition; negative control for TGFβ binding.
For assay [7], the target named is T4, Tumor necrosis factor α (UniProt P01375 77-233).
T4 construct: also called TNFα; TNF
Description: BioVeris ECL competition with a labeled competitor; legend: ++ = IC50 about 10-50 µM. How it is done:
as §1

The target in assay [8] is T4, Tumor necrosis factor α. The experiment in a line: BioVeris ECL competition with a labeled competitor; legend: + = IC50 about 50-250 µM. The procedure: as §1
In assay [9] the target is T1, vascular endothelial growth factor. Description: BioVeris ECL competition with a labeled competitor; legend: ++ = IC50 about 10-50 µM. How it is done:
as §1

Assay [10] addresses T4, Tumor necrosis factor α. Description: BioVeris ECL competition; negative control for TNFα binding.

T1 sequence (P15692 other isoform, or with tags, fused parts or gaps limits assumed): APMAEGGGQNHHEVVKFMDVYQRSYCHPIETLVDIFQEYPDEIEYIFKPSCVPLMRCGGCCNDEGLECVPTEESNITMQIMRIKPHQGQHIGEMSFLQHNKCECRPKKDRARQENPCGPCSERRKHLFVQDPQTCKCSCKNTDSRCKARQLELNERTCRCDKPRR
T3 sequence (P01137 279-390 limits assumed): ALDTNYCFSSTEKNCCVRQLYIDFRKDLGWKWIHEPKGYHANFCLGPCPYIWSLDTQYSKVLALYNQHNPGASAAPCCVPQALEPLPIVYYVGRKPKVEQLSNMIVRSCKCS
T4 sequence (P01375 77-233 limits assumed): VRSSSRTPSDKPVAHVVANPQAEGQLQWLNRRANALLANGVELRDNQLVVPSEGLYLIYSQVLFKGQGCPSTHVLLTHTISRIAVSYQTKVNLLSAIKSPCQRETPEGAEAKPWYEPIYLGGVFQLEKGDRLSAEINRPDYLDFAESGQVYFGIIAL

B1: wild-type soybean Bowman-Birk protease inhibitor (other)
chain: DDESSKPCCDQCACTKSNPPQCRCSDMRLNSCHSACKSCICALSYPAQCFCVDITDFCYEPCKPSEDDKEN
notes: Negative control with the native chymotrypsin loop ALSYPAQ; also called sBBI; BBI
As for B1, the IC50 in assay [1] and in assay [2] was more than 250 µM throughout.

B2: BBIt-VEGKD-A13I-S25K-L29P-V52K (designed binder)
chain: DPDDESSKPCCDQCICTKSNPPQCRCKDMRPNSCHSACKSCICKYDLYWWCFCKDITDFCYEPCKPSE
notes: also called VegKD-Q
Turning to B2, the IC50 in [3] was in the range of 2 to 10 µM.

B3: PEN3-Q-BBIt-TGFβ1 (designed binder)
chain: DPDDESSKPCCDQCICTKSNPPQCRCSDMRPNSCHSACKSCACPENINVLPCTCADITDFCYEPCKPSE
notes: also called BBIt-PEN3-Q-A13I-L29P-F50T-V52A
In assay [4], B3 registered an IC50 of 10 to 50 µM.

B4: BBdb-AV (designed binder)
chain: DPSESSKPCCDQCACTKSIPPQCRCTDVRLNSCHSACSSCACYNLYGWTCVCVDMKDFCYEPCK
notes: also called BBIdb-AV
The molecule B4 came in with an IC50 in assay [3] of 2 to 10 µM.

B5: BBIt-AV-A13I-L29P-A40K-F50T-V52A (designed binder)
chain: DPDDESSKPCCDQCICTKSNPPQCRCSDMRPNSCHSACKSCKCYNLYGWTCTCADITDFCYEPCKPSE
notes: also called TA5; quintuple variant
In assay [3], B5 returned an IC50 of 2 to 10 µM.

B6: MM007-Q-BBIt-FGF-5 (designed binder)
chain: DPDDESSKPCCDQCICTKSNPPQCRCSDMRPNSCHSACKSCACRTQPYPLCTCADITDFCYEPCKPSE
notes: also called BBIt-MM007-Q-A13I-L29P-F50T-V52A
Take B6: the IC50 in assay [5] was 10 to 50 µM.

B7: WTQ-Q-BBIt-TGFβ1 (designed binder)
chain: DPDDESSKPCCDQCICTKSNPPQCRCSDMRPNSCHSACKSCACWTQHIHNCTCADITDFCYEPCKPSE
notes: also called BBIt-WTQ-Q-A13I-L29P-F50T-V52A
The molecule B7 had an IC50 in assay [4] of 10 to 50 µM.

B8: MM021W-Q-BBIt-TGFβ1 (designed binder)
chain: DPDDESSKPCCDQCICTKSNPPQCRCSDMRPNSCHSACKSCACKHNVDWLCTCADITDFCYEPCKPSE
notes: also called MM0212-Q-BBIt-TGF; BBIt-MM021W-Q-A13I-L29P-F50T-V52A
Turning to B8, the IC50 in [4] fell in the range of 10 to 50 µM.

B9: FGFps2-Q-BBIt-FGF-5 (designed binder)
chain: DPDDESSKPCCDQCICTKSNPPQCRCSDMRPNSCHSACKSCACTWIDSTPCTCADITDFCYEPCKPSE
notes: also called BBIt-FGFps2-Q-A13I-L29P-F50T-V52A
For B9, the IC50 in [5] is 10 to 50 µM; in assay [6] it was more than 250 µM.

B10: BBIt-AV-A13I-S25R-M27A-L29P-S31A-A40H-F50K-V52T (designed binder)
chain: DPDDESSKPCCDQCICTKSNPPQCRCRDARPNACHSACKSCHCYNLYGWTCKCTDITDFCYEPCKPSE
notes: the entry carries an N-terminal DP; also called KT8
Molecule B10 came in with an IC50 in [3] of 2 to 10 µM.

B11: BBIt-AV-A13I-S25K-M27A-L29R-S31E-A40K-F50Q-V52Q (designed binder)
chain: DPDDESSKPCCDQCICTKSNPPQCRCKDARRNECHSACKSCKCYNLYGWTCQCQDITDFCYEPCKPSE
notes: the entry carries an N-terminal DP; also called QQ8
B11 gave an IC50 in assay [3] of 2 to 10 µM.

B12: BBIt-AV-A13I-S25K-M27A-L29R-S31A-A40H-F50R-V52L (designed binder)
chain: DPDDESSKPCCDQCICTKSNPPQCRCKDARRNACHSACKSCHCYNLYGWTCRCLDITDFCYEPCKPSE
notes: the entry carries an N-terminal DP; also called RL8
In turn, B12 displayed an IC50 in assay [3] of 2 to 10 µM.

B13: BBIt-AV-A13I-A40K-F50T-V52A (designed binder)
chain: DPDDESSKPCCDQCICTKSNPPQCRCSDMRLNSCHSACKSCKCYNLYGWTCTCADITDFCYEPCKPSE
notes: the entry as printed carries an N-terminal DP from the linker
In assay [3], B13 displayed an IC50 of 2 to 10 µM.

B14: BBIt-AV (designed binder)
chain: DDESSKPCCDQCACTKSNPPQCRCSDMRLNSCHSACKSCACYNLYGWTCFCVDITDFCYEPCKPSE
notes: BBI-AV without its 5 C-terminal amino acids; also called truncated BBI-AV; unmodified BBIt-AV
In assay [3], B14 yielded an IC50 of 2 to 10 µM.

B15: BBtc-AV (designed binder)
chain: DPSSKWEACCDRCACTKSIPPQCHCADIRLNSCHSACESCACYNLYGWTCRCFDITDFCYKPCSG
notes: also called BBItc-AV
The molecule B15 registered an IC50 in assay [3] of 2 to 10 µM.

B16: BBIt-TNFα-T1-A13I-S25R-M27A-L29P-S31A-F50K-V52T (designed binder)
chain: DPDDESSKPCCDQCICTKSNPPQCRCRDARPNACHSACKSCACRYWQDIPCKCTDITDFCYEPCKPSE
notes: also called BBIt-TNF-T1
Molecule B16 gave an IC50 in assay [7] of 10 to 50 µM.

B17: BBIt-TNFα-T3-A13I-S25R-M27A-L29P-S31A-F50K-V52T (designed binder)
chain: DPDDESSKPCCDQCICTKSNPPQCRCRDARPNACHSACKSCACDMIMVSICKCTDITDFCYEPCKPSE
notes: also called BBIt-TNF-T3
With B17, the IC50 in assay [8] is 50 to 250 µM.

B18: BBIt-VEGF-V5-A13I-S25R-M27A-L29P-S31A-F50K-V52T (designed binder)
chain: DPDDESSKPCCDQCICTKSNPPQCRCRDARPNACHSACKSCACKPSSASSCKCTDITDFCYEPCKPSE
notes: also called BBIt-AV-V5
B18: the IC50 in [9] fell in the range of 10 to 50 µM.

B19: BBIt-TNFα-T2-A13I-S25R-M27A-L29P-S31A-F50K-V52T (designed binder)
chain: DPDDESSKPCCDQCICTKSNPPQCRCRDARPNACHSACKSCACAPEPILACKCTDITDFCYEPCKPSE
notes: also called BBIt-TNF-T2
As for B19, the IC50 in assay [8] fell in the range of 50 to 250 µM.

B20: BBIt-VEGF-V2-A13I-S25R-M27A-L29P-S31A-F50K-V52T (designed binder)
chain: DPDDESSKPCCDQCICTKSNPPQCRCRDARPNACHSACKSCACKTNPSGSCKCTDITDFCYEPCKPSE
notes: also called BBIt-AV-V2
In [3], B20 returned an IC50 of 2 to 10 µM.

B21: BBIt-VEGF-V3-A13I-S25R-M27A-L29P-S31A-F50K-V52T (designed binder)
chain: DPDDESSKPCCDQCICTKSNPPQCRCRDARPNACHSACKSCACRPTGHSLCKCTDITDFCYEPCKPSE
notes: also called BBIt-AV-V3
B21 returned an IC50 in [9] of 10 to 50 µM.

B22: BBIt-VEGF-V6-A13I-S25R-M27A-L29P-S31A-F50K-V52T (designed binder)
chain: DPDDESSKPCCDQCICTKSNPPQCRCRDARPNACHSACKSCACPVTKRVHCKCTDITDFCYEPCKPSE
notes: also called BBIt-AV-V6
Regarding B22, in [3], the IC50 lay within 2 to 10 µM.

B23: BBIt-VEGF-V4-A13I-S25R-M27A-L29P-S31A-F50K-V52T (designed binder)
chain: DPDDESSKPCCDQCICTKSNPPQCRCRDARPNACHSACKSCACKHSAKAECKCTDITDFCYEPCKPSE
notes: also called BBIt-AV-V4
In turn, B23 yielded an IC50 in assay [3] of 2 to 10 µM.

B24: BBIt-VEGF-V1-A13I-S25R-M27A-L29P-S31A-F50K-V52T (designed binder)
chain: DPDDESSKPCCDQCICTKSNPPQCRCRDARPNACHSACKSCACSKHSQITCKCTDITDFCYEPCKPSE
notes: also called BBIt-AV-V1
In the case of B24, the values for the IC50 in assay [10] and in [9] were more than 250 µM and 10 to 50 µM, respectively.
